In patent US20220273789A1:

Assays:
[1] = target: Recombinant HSV2 gEgI protein (coating antigen of the competitive ELISA, produced in ExpiHEK293F) (HSV2 strain SD90e) (UniProt P89475); experiment: ED50 of the competitive ELISA (competitor: human IgG); GM of N=4 mice, 14PIII (D42); 5 is the value given to negative samples (first dilution/2), below the positivity threshold (1/10)
[2] = target: Recombinant HSV1 gEgI protein (coating antigen of the competitive ELISA, produced in ExpiCHO) (HSV1 strain KOS321; HSV1 strain 17); experiment: as above
[3] = target: Recombinant HSV1 gEgI protein (coating antigen of the competitive ELISA, produced in ExpiCHO) (HSV1 strain KOS321; HSV1 strain 17); experiment: ED50 of the competitive ELISA (competitor: human IgG); GM of N=5 mice, 21PII (D49); 5 is the value given to negative samples (first dilution/2), below the positivity threshold (1/10)
[4] = target: Recombinant HSV2 gEgI protein (coating antigen of the competitive ELISA, produced in ExpiHEK293F) (HSV2 strain SD90e) (UniProt P89475); experiment: ED50 of the competitive ELISA (competitor: human IgG); GM of N=4 mice, 21PIII (D63); bar below the positivity threshold (1/10), 5 being the first dilution/2
human IgG (human) = experiment: BLI (Octet), His-tagged gEgI immobilised on Ni-NTA sensor, response to human IgG

Substance	hIgG binding response (human IgG (human))	also measured
NaCl150mM	–	ED50 titer (geometric mean) (reciprocal dilution) [1]: 5; ED50 (geometric mean) (reciprocal dilution) [2]: 5; ED50 titer (geometric mean) (reciprocal dilution) [3]: 5; ED50 titer (geometric mean) (reciprocal dilution) [4]: 5
PN97 (HSV2-gE_P318G_Δ319-320_gI) (from UniProt P89475 21-416; P06764 21-256) (receptor)	0.146 nm	–
PN98 (HSV2-gE_P318K_Δ319-320_gI) (from UniProt P89475 21-416; P06764 21-256) (receptor)	0.135 nm	–
PN99 (HSV2-gE_P317R-P318E_Δ319-320_gI) (from UniProt P89475 21-416; P06764 21-256) (receptor)	0.0795 nm	–
PN100 (HSV2-gE_P317R-P318G_Δ319-320_gI) (from UniProt P89475 21-416; P06764 21-256) (receptor)	0.0877 nm	–
PN101 (HSV2-gE_P317G-P318K_Δ319-320_gI) (from UniProt P89475 21-416; P06764 21-256) (receptor)	0.0868 nm	–
